Assay results from the supplement of paper PMC10567573.
± gives the standard deviation.

Experiment: protein stability index of a GFP-peptide fusion (GPS, HEK-293T) (PSI 1-6); higher = more stable
[1] = treatment: DMSO, c terminus: a fixed tail appended
[2] = treatment: MLN4924 1 uM, 8 h, c terminus: a fixed tail appended
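Also: 24-mer peptide tiles fused after GFP, lentivirally expressed, FACS-sorted into six equal bins by GFP/DsRed ratio, decoded by Illumina sequencing, PSI is the read-weighted mean bin number.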

Row | Sequence | protein stability index [1] | protein stability index [2] | protein stability index (treatment: DMSO, c terminus: native) | protein stability index (treatment: MLN4924 1 uM, 8 h, c terminus: native)
1 | LTDVSPEPLQALLERASATLQDLV [PRAME] | 3.05 ± 0.16 | 3.33 ± 0.6 |  | 
2 | TVDKEVEIRKKVLKIYNKREEDFP [MNAT1] | 4.08 ± 0.17 | 4.27 ± 0.12 |  | 
3 | CSHSFLLAVMGYDRYIAICNPLRY [OR10K2] | 2.87 ± 0.52 | 2.88 ± 0.58 |  | 
4 | GKVQDIKAREKDGKGRTASPINSP [FSD1] | 4.99 ± 0.37 | 5.25 ± 0.24 |  | 
5 | QALRGLEGYTWRVAQLEDRRSTTD [ZSWIM9] | 3.91 ± 0.23 | 3.75 ± 0.52 |  | 
6 | VNCISPLKYFSDFRPYFTIHDSEF [DENND6A] | 2.27 ± 0.68 | 1.92 ± 0.19 |  | 
7 | FLKQGDSADETTAHKTEEENSDSD [CMTM3] | 5.63 ± 0.25 | 5.58 ± 0.43 |  | 
8 | RKWHKASNYIFVAIFWIVFLLLIV [P2RY14] | 3.34 ± 0.35 | 3.43 ± 0.17 |  | 
9 | DETHFGKMGSYYINRTFFFDVHPP [POMT2] | 2.45 ± 0.21 | 2.23 ± 0.33 |  | 
10 | PKKGPAPSLSPGSSCVKYLIFLSN [TSPAN10] | 2.59 ± 0.64 | 2.43 ± 0.21 |  | 
11 | YGRSDVVVLCFSIANPNSLHHVKT [RHOBTB2] | 3.33 ± 0.47 | 2.69 ± 1.8 |  | 
12 | HRLGSPYGHCTAGGEGVEVELLHN [SCNN1D] | 3.9 ± 0.34 | 3.82 ± 0.37 |  | 
13 | ATNPHVKPPYSYATLICMAMQASK [FOXJ1] | 2.29 ± 0.32 | 2.36 ± 0.064 |  | 
14 | LPNTLLRKDKDVARLQDFQELELV [ANKRD40] | 3.76 ± 0.11 | 3.66 ± 0.29 |  | 
15 | KSESSLPHQTSKMENLPGLASGPG | 4.87 ± 0.29 | 4.43 ± 0.33 |  | 
16 | QDSPGPREAVSQLRELCRLWLRPE [ZNF24] | 3.11 ± 0.32 | 2.9 ± 0.24 |  | 
17 | CEVMQEIVDQVLEEDFDSEQLSVL [INTS3] | 5.06 ± 0.14 | 5.16 ± 0.12 |  | 
18 | SCAWSLNIQANNCFSTGLSRRVLL [DCAF4] | 3.38 ± 0.47 | 2.35 ± 0.38 |  | 
19 | MCKEHEDEKINIYCLTCEVPTCSM [TRIM63] | 3.35 ± 0.26 | 3.27 ± 0.35 |  | 
20 | CTKTCGVGVRMRDVKCYQGTDIVR [ADAMTSL2] | 3.27 ± 0.4 | 2.65 ± 0.33 |  | 
21 | FYTCASHVTVVILFFVPCIFLYAR [OR4A15] | 3.13 ± 0.35 | 3.08 ± 0.26 |  | 
22 | DEAKAPHWTSAPLTEASAHSHPPE [MAP2] | 5.39 ± 0.16 | 5.37 ± 0.075 |  | 
23 | TNFEGPPRLKEDQPWMVIEGIRQT [FSD1] | 3.5 ± 0.082 | 3.75 ± 0.33 |  | 

Row | Sequence | protein stability index [1] | protein stability index [2] | protein stability index (treatment: DMSO, c terminus: native) | protein stability index (treatment: MLN4924 1 uM, 8 h, c terminus: native)
24 | KVLFALCALNALTTTVCLVAAALR [FAM189A2] | 3.13 ± 0.6 | 3.3 ± 0.21 |  | 
25 | GGKIIMPPSALDQLSRLNITYPML [UFD1] | 2.16 ± 0.089 | 2.28 ± 0.2 |  | 
26 | NVPPIPVETLVKKKIPIISNAMLV [ACSBG2] | 2.4 ± 0.21 | 2.38 ± 0.27 |  | 
27 | SRREREPEPPAAVDFLEPDSGTCP [FCHO1] | 5.43 ± 0.22 | 5.44 ± 0.33 |  | 
28 | LINHKKAEDTEKKDEPSKYNQQQA [CEP70] | 5.4 ± 0.21 | 5.26 ± 0.38 |  | 
29 | EDAEGEEEEEEEEEEEDDLSELPP [FKBP8] | 5.67 ± 0.19 | 5.56 ± 0.18 |  | 
30 | HVTCVDQSEHTMVLRCQLSAEEVR [C2CD2L] | 3.73 ± 0.19 | 3.82 ± 0.18 |  | 
31 | LETMARNEVIADINCKGRSKSNLG [OSBPL1A] | 4.46 ± 0.39 | 4.38 ± 0.39 |  | 
32 | LPGLAGPSGEMVKSTTSLTSSSTS [MLH1] | 4.83 ± 0.17 | 4.82 ± 0.058 |  | 
33 | DRILERIEDSTGLNRPGPAPLSSR [TCF25] | 4.47 ± 0.21 | 4.66 ± 0.19 |  | 
34 | SEHLKQRREVAKTVFCLVVIFALC [EDNRA] | 2.58 ± 1.3 | 3.31 ± 0.89 |  | 
35 | ESGVHGALLALDENFDHNTLALIL [PPFIA4] | 2.75 ± 0.17 | 2.96 ± 0.27 |  | 
36 | IKCETSPPSSPRTLRLEKLGHPAL [PPFIA4] | 3.48 ± 0.35 | 3.56 ± 0.22 |  | 
37 | TAAFTTAKAAALSTKTPAPCSEFM [SPAG8] | 3.67 ± 0.14 | 3.84 ± 0.24 |  | 
38 | SAGVGRTGVFITLSIVLERMRYEG [PTPRD] | 2.08 ± 0.095 | 2.34 ± 0.28 |  | 
39 | NMMKVLRGHQNWVYSCAFSPDSSM [WSB1] | 2.37 ± 0.96 | 2.64 ± 0.54 |  | 
40 | FSLNPRSGSLITAGRIDREELCAQ [PCDHGA10] | 3.83 ± 0.38 | 3.93 ± 0.37 |  | 
41 | MEAQAQGLLETEPLQGTDEDAVAS [TPD52L1] | 5.56 ± 0.19 | 5.56 ± 0.16 |  | 
42 | ETKLDLISKGEEPRAGKEESGVSV [SLC29A1] | 5.44 ± 0.15 | 5.39 ± 0.52 |  | 
43 | PDREKGFHLDVEDYLSGVLILASE [TSN] | 2.14 ± 0.1 | 2.81 ± 0.2 |  | 
44 | TRAPQRAHEVLQELRDISSMAMEY [FBXO28] | 3.44 ± 0.11 | 3.48 ± 0.3 |  | 
45 | SLRTLKPEGNILRDRFKSFQRRNM [NOP53] | 3.22 ± 0.23 | 3.21 ± 0.21 |  | 
46 | YLLKFLLVGDSDVGKGEILESLQD [RAB40C] | 2.72 ± 0.38 | 2.45 ± 0.49 |  | 

Row | Sequence | protein stability index [1] | protein stability index [2] | protein stability index (treatment: DMSO, c terminus: native) | protein stability index (treatment: MLN4924 1 uM, 8 h, c terminus: native)
47 | MAEGSAVSDPQHAARLLRALSSFR [GAN] | 3.16 ± 0.28 | 3.3 ± 0.24 |  | 
48 | LSKFDLPEEPSAEDSINNSLVQLQ [MYBL2] | 4.88 ± 0.13 | 4.85 ± 0.16 |  | 
49 | KEDQAWDGASQDCPPLPAGVSFHI [FBXO34] | 3.58 ± 0.33 | 3.46 ± 0.31 |  | 
50 | VSTNTAMIQTSKTEITELRRTLQG [KRT13] | 4.08 ± 0.3 | 4.06 ± 0.22 |  | 
51 | SLQQMQELSNILNLSYKQVKTWFQ [NANOGP8] | 2.27 ± 0.34 | 2.16 ± 0.12 |  | 
52 | SLRSSSSKLAQLTLEQILEHLDNL [INTS3] | 2.31 ± 0.2 | 2.55 ± 0.26 |  | 
53 | FHITNDEPIPFWTFLSRILTGLNY [NSDHL] | 2.45 ± 0.58 | 2.2 ± 0.15 |  | 
54 | VRVNDGGGSHPSRPNSRHTPSFSG [VDR] | 3.72 ± 0.14 | 3.86 ± 0.19 |  | 
55 | RWTSYRFSRVCRLHRGQLSLFCLE [TRIM35] | 2.43 ± 0.54 | 2.23 ± 0.42 |  | 
56 | LLPDGRHAVVEVEDVPLAAKLVDL [TAF7L] | 4.28 ± 0.3 | 4.22 ± 0.18 |  | 
57 | VNLQRFGMNGQMLCNLGKERFLEL [ETS2] | 2.27 ± 0.36 | 2.27 ± 0.33 |  | 
58 | GGGSLSGGGGSRSISASSARFVSS [KRT15] | 4.23 ± 0.47 | 4.39 ± 0.23 |  | 
59 | QAASRIIRNEQFAIRRFQSMPVRL [CDC25B] | 2.75 ± 0.31 | 2.74 ± 0.49 |  | 
60 | GLPPSGSWQDLKDHMREAGDVCYA [SRSF1] | 3.65 ± 0.25 | 3.83 ± 0.48 |  | 
61 | CSKSFRQRAGLIMHQVTHFRGLI [ZNF449] |  |  | 2.92 ± 0.45 | 3.08 ± 0.35
62 | LTQTMHDLAGLGSETPKSQVGTLL [CDC25B] | 3.39 ± 0.42 | 3.62 ± 0.22 |  | 
63 | KCHLWTAMDLGFFVVMGVIGGLLG [CLCN6] | 3.14 ± 0.38 | 3 ± 0.24 |  | 
64 | PNSTFPIDKSMTVVLTFITPMLNP [OR4A15] | 2.95 ± 0.38 | 2.97 ± 0.38 |  | 
65 | RWNKVKMVVSREEVELAYQEAMFN [SEPHS2] | 2.62 ± 0.21 | 2.66 ± 0.29 |  | 
66 | KALQEENRDLRKASVTIQARAEQE [CCDC6] | 5.32 ± 0.2 | 5.32 ± 0.091 |  | 
67 | SASEMKQLIDNILEESDIDRDGTI [CIB1] | 5.31 ± 0.27 | 5.45 ± 0.2 |  | 
68 | SGRKNSTSKDLVTLGASSLREERG [C6orf223] | 4.77 ± 0.099 | 4.87 ± 0.26 |  | 
69 | SEALLYALVHDHQAYAHYLLATFP [ANKRD9] | 2.7 ± 0.49 | 2.61 ± 0.53 |  | 

Row | Sequence | protein stability index [1] | protein stability index [2] | protein stability index (treatment: DMSO, c terminus: native) | protein stability index (treatment: MLN4924 1 uM, 8 h, c terminus: native)
70 | NYPKGGLLDSMCPASTPSVLSSEQ [ETS2] | 4.64 ± 0.26 | 4.45 ± 0.15 |  | 
71 | LNKPALQAQPLRTTSTLASSLPGH [EHMT1] | 3.81 ± 0.14 | 3.91 ± 0.28 |  | 
72 | LYLCPNGARCATWFQDPTRFTGTM [SLC25A39] | 2.82 ± 0.64 | 2.7 ± 0.63 |  | 
73 | GSMVEIAKQLQAVKRKIRDESLCP [TRIM39] | 3.09 ± 0.24 | 3.15 ± 0.24 |  | 
74 | SSNLGQHQRIHTGEKPFECNECGK [ZNF232] | 4.78 ± 0.22 | 5.01 ± 0.19 |  | 
75 | SSISSTSNEQLKVTQEPRAKKGRR [ZMYND11] | 5.24 ± 0.48 | 5.45 ± 0.077 |  | 
76 | NKVELQAKVESMDQEIKFFRCLFE [KRT71] | 2.52 ± 0.51 | 2.48 ± 0.38 |  | 
77 | GNFESLDLAEFAKKQPWWRKLFGQ [FUNDC2] | 3.31 ± 0.24 | 3.29 ± 0.35 |  | 
78 | QINRLQKLIDRLEKKDLKLEPPEE [NECAB1] | 3.22 ± 0.1 | 3.7 ± 0.56 |  | 
79 | PCKLEKMRILAHGELVLATAISSF [TLE6] | 2.7 ± 0.36 | 2.45 ± 0.41 |  | 
80 | NHRLISEILSESVVPDVRSVVTTA [SMARCE1] | 3.31 ± 0.26 | 3.17 ± 0.56 |  | 
81 | YGTKKFMQELTEMLGFRPYRFYFY [SLC6A17] | 2.29 ± 0.95 | 2.28 ± 0.48 |  | 
82 | PEEPAASTDPNIVRKKERGREEKC [TAF7L] | 5.28 ± 0.53 | 5.64 ± 0.32 |  | 
83 | LPREEEIVFPEKLNGSVLPGSGAP [ADAMTS4] | 4.49 ± 0.45 | 4.63 ± 0.46 |  | 
84 | AFHEPQVGLIQAAQQLLCDEQAPQ [DFFB] | 4.64 ± 0.18 | 4.92 ± 0.18 |  | 
85 | TLEGHQRAIMAHMTVEEIYKDRQK [FLOT1] | 4.52 ± 0.13 | 4.7 ± 0.19 |  | 
86 | IQDKLFQVAKREREAATKHSKASL [CHCHD6] | 3.86 ± 0.47 | 4.14 ± 0.22 |  | 
87 | LKYENDYPSVILRDPLQTDTLQND [ETS1] | 4.2 ± 0.31 | 4.53 ± 0.34 |  | 
88 | ADSSAQAAAQAPENFQEGKDMSES [TAF7L] | 5.72 ± 0.14 | 5.49 ± 0.39 |  | 
89 | AGKLRLLREMCALSFQEELLYWGI [KCNG1] | 2.88 ± 0.5 | 2.34 ± 0.24 |  | 
